Experimental data as given in paper PMC6422896, “CrgA Protein Represses AlkB2 Monooxygenase and Regulates the Degradation of Medium-to-Long-Chain n-Alkanes in Pseudomonas aeruginosa SJTD-1” (Frontiers in Microbiology, 2019).

B1: alkB2-b2 (dsDNA)
DNA 1: AGGACAATTGTCAGACAATCTAACAAGCGGCGGACAGAACGAAGATAAATACGAGGACTTCCC
DNA 2: GGGAAGTCCTCGTATTTATCTTCGTTCTGTCCGCCGCTTGTTAGATTGTCTGACAATTGTCCT
B2: alkB2-U46 (dsDNA)
DNA 1: AGGACAATTGTCAGACAATCTAACAAGATAAATACGAGGACTTCCC
DNA 2: GGGAAGTCCTCGTATTTATCTTGTTAGATTGTCTGACAATTGTCCT
B3: alkB2-b1 (dsDNA)
DNA 1: AGGACAATTGTCAGACAATCTAACAGGGATGGGGCAGGCCGGCCAAGGGAGATAAATACGAGGACTTCCC
DNA 2: GGGAAGTCCTCGTATTTATCTCCCTTGGCCGGCCTGCCCCATCCCTGTTAGATTGTCTGACAATTGTCCT

Target: T1, CrgA (Pseudomonas aeruginosa SJTD-1, UniProt Q9I4D7 1-304)
T1 sequence: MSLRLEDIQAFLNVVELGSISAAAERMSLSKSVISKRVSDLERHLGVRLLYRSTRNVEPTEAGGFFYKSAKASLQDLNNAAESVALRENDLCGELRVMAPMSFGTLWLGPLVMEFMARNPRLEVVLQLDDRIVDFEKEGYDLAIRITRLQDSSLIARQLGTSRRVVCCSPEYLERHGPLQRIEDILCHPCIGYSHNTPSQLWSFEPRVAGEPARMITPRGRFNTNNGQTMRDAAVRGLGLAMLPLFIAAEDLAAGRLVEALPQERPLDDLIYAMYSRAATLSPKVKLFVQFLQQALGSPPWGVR
Assay: EMSA; EMSA: 20 mM Tris-HCl, 50 mM NaCl, 1 mM DTT, 0.1 mM EDTA, pH 7.5, 37 C 30 min, 4 pmol DNA in 20 uL, 8% native PAGE; footprinting at 25 C
Conditions: protein: recombinant; tags: His-tag (pET28a, Ni-NTA; NdeI/BamHI cloning, N-terminal tag likely); chain copies: 4; label: 5'-FAM on strand 2; blunt

Binder	binding result
B1	binds
B2	no binding
B3	binds
